{"source": "paper PMC6608618", "about": "“Structures of three ependymin-related proteins suggest their function as a hydrophobic molecule binder” (IUCrJ, 2019)", "molecules": {"B1": {"name": "mouse EPDR1 (residues 38-224, N-terminal His8 tag) (natural protein, UniProt Q99M71 38-224, looked up)", "chain": "TPQPCQAPQQWEGRQVLYQQSSGHNNRALVSYDGLNQRVRVLDERKALIPCKRLFEYILLYKEGVMFQIEQATKQCAKIPLVESWDPLDIPQNSTFEDQYSIGGPQEQILVQEWSDRRTARSYETWIGVYTAKDCYPVQETFIRNYTVVMSTRFFDVQLGIKDPSVFTPPSTCQAAQPEKMSDGCSL", "modifications": "N-glycosylation at Asn130 (one NAG) and at Asn182 (two NAGs and one fucose)", "notes": "mouse (Mus musculus) EPDR1, UniProt Q99M71, residues 38-224, without the native N-terminal signal peptide; Three intramolecular disulfide bonds; also called MERP1; source: Sf9 insect cells (baculovirus, pAcGP67A, secreted), purified (Ni-NTA, size-exclusion chromatography)"}, "B2": {"name": "human EPDR1 (residues 38-224, N-terminal His8 tag) (natural protein, UniProt Q9UM22 38-224, looked up)", "chain": "APRPCQAPQQWEGRQVMYQQSSGRNSRALLSYDGLNQRVRVLDERKALIPCKRLFEYILLYKDGVMFQIDQATKQCSKMTLTQPWDPLDIPQNSTFEDQYSIGGPQEQITVQEWSDRKSARSYETWIGIYTVKDCYPVQETFTINYSVILSTRFFDIQLGIKDPSVFTPPSTCQMAQLEKMSEDCSW", "modifications": "glycosylation at the two predicted Asn sites only slightly perceivable, too disordered to be modeled", "notes": "human EPDR1, UniProt Q9UM22, residues 38-224, without the native N-terminal signal peptide; Three intramolecular disulfide bonds (Cys42-Cys172, Cys88-Cys222, Cys113-Cys210); also called mammalian ependymin-related protein 1; MERP1; source: Sf9 insect cells (baculovirus, pAcGP67A, secreted), purified (Ni-NTA, size-exclusion chromatography)"}, "B3": {"name": "frog EPDR1 (Xenopus tropicalis, residues 38-220, N-terminal His8 tag) (natural protein, UniProt F6VRB7 38-220, looked up)", "chain": "TPCEAPLQWEGRIVLYDHNTGKNTRATVTYDAILQRIRILEEKKSFVPCKRFFEYIFLYQEAVMFQIEQVTKICSKNTLTEPWDPYDIPENSTYEDQYYIGGPGDQIPVQEWSDRKPARKYETWVGVYTVKDCYPVQETYTKNDSMTTSTRFFDIKLGISDPSVFNPPSTCEAAQPLLMSGDC", "modifications": "glycosylation at the two predicted Asn sites only slightly perceivable, too disordered to be modeled", "notes": "frog (Xenopus tropicalis) EPDR1, NCBI XP_002939463, residues 38-220, without the native N-terminal signal peptide; Three intramolecular disulfide bonds; source: Sf9 insect cells (baculovirus, pAcGP67A, secreted), purified (Ni-NTA, size-exclusion chromatography)"}}, "key": {"human EPDR1": {"target": "T1, human EPDR1 (Homo sapiens, UniProt Q9UM22)", "T1 construct": "residues 38-224 without native signal peptide; N-terminal His8 tag, cleavage not mentioned; codon-optimised synthetic gene, pAcGP67A; secreted from Sf9 insect cells; homodimer in crystal; three intramolecular disulfides", "T1 sequence (Q9UM22 38-224)": "B2 chain", "assay": "fluorescence increase titration (ex […] nm, em […] nm)", "format": "binding"}, "[1]": {"target": "the molecule itself", "assay": "crystal structure; mouse EPDR1 crystals, hanging drop 22 C, 0.5-1.0 M lithium sulfate, 0.5-1.0 M ammonium sulfate, 0.1 M sodium citrate pH 5.6; space group P2(1), four molecules in the asymmetric unit"}, "[2]": {"target": "the molecule itself", "assay": "crystal structure; human EPDR1 crystals, hanging drop 22 C, 15-20% PEG 3350 with 0.1 M citric acid pH 4.5 or 0.2 M NaCl, 0.1 M bis-Tris pH 5.5; space group P4(3), four molecules in the asymmetric unit; interfaces judged by PISA"}, "[3]": {"target": "the molecule itself", "assay": "crystal structure; frog EPDR1 crystals, hanging drop 22 C, 15-20% PEG 8000, 0.2 M calcium acetate, 0.1 M sodium cacodylate pH 6.5; space group P6(5)22, one molecule in the asymmetric unit, dimer with a crystallographic symmetry mate"}}}
{"molecule": "O=S(=O)(O)c1cccc2cccc(Nc3ccccc3)c12", "note": "[1,8-ANS, 1-anilinonaphthalene-8-sulfonic acid]", "values": [{"measurement": "Kd", "setting": "human EPDR1", "value": "~14", "unit": "µM"}]}
{"molecule": "B1", "values": [{"measurement": "stoichiometry N", "setting": "[1]", "value": 2}]}
{"molecule": "B2", "values": [{"measurement": "stoichiometry N", "setting": "[2]", "value": 2}]}
{"molecule": "B3", "values": [{"measurement": "stoichiometry N", "setting": "[3]", "value": 2}]}
